B1: Labeled CDC-37 (*CDC-37) (natural protein, nematode, UniProt O02108 1-370, looked up)
chain: MPIDYSKWKDIEVSDDEDDTHPNIDTPSLFRWRHQARLERMAEKKMEQEKIDKEKGTTSKKMEELEKKLAAADVTDKSDIQKQIDEVKAQEEAWRKKEAELEEKERLEPWNVDTIGHEAFSTSRINKITEKKPQAPKTDEEDTHAMSTFFETHESLLEKMAVLKNGAKSTELFLAEHPHMASEYTANWLTIEALNAAIDFNEEKMKTMAEQCIIIQYLLELSKSLNAVATNTTVQKQFFKKFEAAEPVYMKHYQDEVKAFEDRLRTRAQTKRDAAMEEAEAEEKAERMKSAPGGIDPQEVFEQLPEEMRKCFEAHDIEALKGVAQKMDEEVFKYHFDRCIASGLWVPGKADDDDDDEEAAPAEEEPTTSS
modifications: ATTO 488 C5-maleimide at its cysteine residues
notes: CDC-37, kinase-specific Hsp90 cofactor of nematodes; same protein as m1, labeled at cysteines; The methods name ATTO 488 C5-maleimide, the results call the label AlexaFluor 488; also called fluorescently labeled CDC-37; AlexaFluor 488-labeled CDC-37
B2: CDC-37 (natural protein, nematode, UniProt O02108 1-370, looked up)
chain: B1 chain
notes: CDC-37, kinase-specific Hsp90 cofactor of nematodes; cDNA in pET28b after the N-terminal His6 tag; called full-length in the results; Cleavage of the His6 tag is not mentioned; also called full-length CDC-37; FL; source: E. coli BL21-CodonPlus(DE3)RIL, purified (HisTrap FF, ResourceS ion exchange, Superdex 75 SEC)
B3: DNJ-13 (natural protein)
chain: not shown
notes: DNJ-13, cytosolic Hsp40-like J domain protein of C. elegans; cDNA in pET28b after the N-terminal His6 tag; called full-length in the results; also called full-length DNJ-13; DNJ-13 dimer; source: E. coli BL21-CodonPlus(DE3)RIL, purified (HisTrap FF, ResourceS ion exchange, Superdex 75 SEC)

In one data set the target is T1, HSP-90 (nematode, UniProt Q18688 1-702).
T1 construct: HSP-90 of nematodes, the chaperone for which CDC-37 acts as co-chaperone; the construct is not described
Briefly: AUC; sedimentation velocity with fluorescence detection; 300 nM *CDC-37 with or without 2 µM binding partners; 42,000 rpm, 20 °C; 40 mM HEPES/KOH pH 7.5, 20 mM KCl, 1 mM DTT, 5 mM MgCl2; with and without ATPγS for HSP-90. Conditions: both partners purified.

The target of the data set “DNJ-13” is B3. Briefly: AUC; sedimentation velocity with UV/Vis absorbance, non-labeled proteins, 0.5 mg/ml protein; 10 µM DNJ-13 with substoichiometric, equal or excess CDC-37; 2DSA analysis in UltraScan III. The note with it: both partners purified.
Data set [1] deals with the molecule itself. As to the kind of experiment: cross-linking; isotope labeled BS3-H12/D12 and DSSG-H6/D6; 16 µM DNJ-13 and 16 µM CDC-37; bands cut from SDS-PAGE, tryptic digest, nanoLC-ESI-MS/MS; crosslinks identified with xMASS and pLink2.0.
For the data set “Labeled CDC-37 (*CDC-37)”, the target named is B1. As to the kind of experiment: AUC; fluorescence AUC titration, 100 nM *CDC-37 with 0-10 µM DNJ-13; sedimentation coefficients against DNJ-13 concentration fitted with a Michaelis-Menten function; approximate KD. Conditions: both partners purified.
Sequence of DNJ-13 (Q20774 entry or part of it): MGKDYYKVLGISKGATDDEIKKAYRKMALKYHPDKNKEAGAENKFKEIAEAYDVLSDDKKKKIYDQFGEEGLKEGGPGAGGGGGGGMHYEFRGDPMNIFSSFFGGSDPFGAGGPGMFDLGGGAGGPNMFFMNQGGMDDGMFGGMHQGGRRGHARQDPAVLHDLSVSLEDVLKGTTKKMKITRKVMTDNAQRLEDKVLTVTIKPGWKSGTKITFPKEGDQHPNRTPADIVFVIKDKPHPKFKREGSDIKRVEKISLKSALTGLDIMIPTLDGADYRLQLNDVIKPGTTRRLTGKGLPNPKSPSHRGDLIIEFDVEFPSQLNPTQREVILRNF

The source of these data is paper PMC8560915, “Nematode CDC-37 and DNJ-13 form complexes and can interact with HSP-90” (Scientific Reports, 2021).

With B1, the binding result with HSP-90 is on record as “binds”. Regarding B2, the stoichiometry N (as a rule, a count of units in the complex or per binding partner) with DNJ-13 is 1 CDC-37 per DNJ-13 dimer.

On to B3, for which the “stoichiometry N” value in data set [1] was 2. The dissociation constant Kd (in general, the equilibrium constant for the complex coming apart) in the data set with Labeled CDC-37 (*CDC-37) is approximately 3000 nM.
